In US20190300576A1 (MIT, published 2019):
*1 amine or outer side, *2 acyl side, *3 side chain or, on linkers, in order; H or OH if unused. Bridges are numbered along the chain shown (N, C = ends). Where no end group is shown, it is not given here. [ ]: non-standard residue; d: D form. The star is where a group is joined. Hexa = hexylalanine = (2S)-2-aminononanoic acid, CCCCCCC[C@H](N[*:1])C(=O)[*:2]; Biotin = O=C1N[C@H]2[C@H](CS[C@H]2CCCCC(=O)*)N1; perfluorosulfone = not defined here; R8 = C=CCCCCCC[C@@](C)(N)C(=O)O; F2f = difluoro-L-phenylalanine; Cba = N[C@@H](CC1CCC1)C(=O)O; S5 = C=CCCC[C@](C)(N)C(=O)O; Anta = not defined here; Napa = not defined here; Dap = NC[C@H](N)C(=O)O; F3f = not defined here

Target: MDM2 in MDM2 overexpressing SJSA-1 cells (UniProt Q00987 1-491, limits assumed)
Assay: cell-based or functional assay

Row | Binder | IC50, viability of SJSA-1 cells [nM]
1 | Ac-LT[F2f][R8]EY[Hexa]AQ[Cba][S5]SAA-NH2 (bridges not given here) [peptide 10b-M unclosed] | 17000
2 | Ac-LT[F2f][R8]EY[Napa]AE[Cba]KSAA-NH2 (staple (positions not given here); not fully specified (residue 11, bridges); reading uncertain) [peptide 27b-M] | 2700
3 | Ac-LT[F2f]KEYWAE[Cba]KSAA-NH2 (linker 4-11 via perfluorosulfone; reading uncertain; also: printed as LT(F2f)KEYWAE(Cba)KSAA) [peptide 11b-S4] | > 20000
4 | Ac-LT[F2f][R8]EY[Hexa]AQ[Cba][S5]SAA-NH2 (staple 4-11) [peptide 10b-M] | 2400
5 | Ac-LT[F2f][Dap]EY[Hexa]AQ[Cba][Dap]SAA-NH2 (bridge 4-11 via perfluorosulfone; reading uncertain) [peptide 10b-S1] | > 20000
6 | Ac-LT[F2f]KEY[Hexa]AQ[Cba]KSAA-NH2 (linker 4-11 via perfluorosulfone; reading uncertain; also: printed as LT(F2f)KEY(Hexa)AQ(Cba)(K)SAA) [peptide 10b-S4] | > 20000
7 | Ac-LT[F2f]KEY[Napa]AQ[Cba]KSAA-NH2 (linker 4-11 via perfluorosulfone; reading uncertain) [27b-S4] | > 20000
8 | Ac-LT[F2f][R8]EFWAQ[Cba][S5]SAA-NH2 (staple 4-11) [peptide 11b-M] | 3200
9 | LTF[R8]EYWAE[Cba][S5]SAA-NH2 (staple 4-11; N-terminus assumed; SMILES CC(C)C[C@H](N)C(=O)N[C@H](C(=O)N[C@@H](Cc1ccccc1)C(=O)N[C@]1(C)CCCCCCC=CCCC[C@@](C)(C(=O)N[C@@H](CO)C(=O)N[C@@H](C)C(=O)N[C@@H](C)C(N)=O)NC(=O)[C@H](CC2CCC2)NC(=O)[C@H](CCC(=O)O)NC(=O)[C@H](C)NC(=O)[C@H](Cc2c[nH]c3ccccc23)NC(=O)[C@H](Cc2ccc(O)cc2)NC(=O)[C@H](CCC(=O)O)NC1=O)[C@@H](C)O) [peptide ATSP-7040] | 3000
10 | Ac-LT[F2f][Dap]EYWAQ[Cba][Dap]SAA-NH2 (linker 4-11 via perfluoroaryl sulfone, Macrocyclic) [peptide 11b-S1] | 7800

Target: T1, SUMO-^25-109MDM2 (UniProt Q00987 25-109)
T1 construct: range 25-109; Expressed in Rosetta (DE3) pLysS cells, MW=23 297 Da, used with the SUMO tag on; not shown: SUMO fusion tag (protein purified on Ni-NTA)
Assay: BLI, estimated in solution (competition assay) for acetylated construct

Row | Binder | Kd [nM]
11 | Ac-LT[F2f][Dap]EYWAQ[Cba][Dap]SAA-NH2 (linker 4-11 via perfluoroaryl sulfone, Macrocyclic) [peptide 11b-S1] | 1

Target: T1, SUMO-^25-109MDM2
Assay: BLI, immobilized assay for biotinylated peptide

Row | Binder | Kd [nM]
12 | Biotin-LT[F2f][R8]EY[Hexa]AQ[Cba][S5]SAA-NH2 (staple 4-11, Macrocyclic) [peptide 10a-M] | 3

Target: T1, SUMO-^25-109MDM2
Assay: BLI in-solution competition assay, free MDM2 read on immobilized 63a

Row | Binder | Kd [nM]
13 | Ac-LTFEHYWAQYTSK-NH2 [peptide 7b] | 490
14 | Ac-LTLEHYWAQLTSK-NH2 (Text says 3Phe to Leu or Tyr (8a and 9a)) [peptide 8b] | 2500
15 | Ac-LTYEHYWAQLTSK-NH2 (Text says 3Phe to Leu or Tyr (8a and 9a)) [peptide 9b] | 8700

Target: T1, SUMO-^25-109MDM2
Assay: BLI, biotinylated peptide immobilized

Row | Binder | Kd [nM]
16 | Biotin-LTFPHYWAELTSK-NH2 (SMILES CC(C)C[C@H](NC(=O)CCCC[C@@H]1SC[C@@H]2NC(=O)N[C@@H]21)C(=O)N[C@H](C(=O)N[C@@H](Cc1ccccc1)C(=O)N1CCC[C@H]1C(=O)N[C@@H](Cc1c[nH]cn1)C(=O)N[C@@H](Cc1ccc(O)cc1)C(=O)N[C@@H](Cc1c[nH]c2ccccc12)C(=O)N[C@@H](C)C(=O)N[C@@H](CCC(=O)O)C(=O)N[C@@H](CC(C)C)C(=O)N[C@H](C(=O)N[C@@H](CO)C(=O)N[C@@H](CCCCN)C(N)=O)[C@@H](C)O)[C@@H](C)O) [peptide 3a] | 80

Target: T1, SUMO-^25-109MDM2
Assay: BLI, acetylated peptide (in solution competition assay)

Row | Binder | Kd [nM]
17 | Ac-LTLEHYWAQLTSK-NH2 (Text says 3Phe to Leu or Tyr (8a and 9a)) [peptide 8b] | 2700

Target: T1, SUMO-^25-109MDM2
Assay: BLI, peptide on streptavidin sensors, global fit

Row | Binder | Kd [nM]
18 | Biotin-LT[F2f]EHYWAQ[Cba]TSK-NH2 [peptide 11a] | 2
19 | Biotin-LT[F2f]EHY[Hexa]AQ[Cba]TSK-NH2 [peptide 10a] | 0.5
20 | Biotin-LT[F3f]EHY[Anta]AQ[Cba]TSK-NH2 (reading uncertain; also: printed as LT(F3f)EHY(Anta)AQ(Cba)TSK) [peptide 22a] | 10
21 | Biotin-LT[F2f]EHYWAQ[F2f]TSK-NH2 [peptide 25a] | 20
22 | Biotin-LT[F2f]EHYWAQ[Hexa]TSK-NH2 [peptide 19a] | 8
23 | Biotin-LT[F2f][R8]EY[Hexa]AQ[Cba][S5]SAA-NH2 (staple 4-11, Macrocyclic) [peptide 10a-M] | 5
